Target: mGluR1 (UniProt P97772)
Test: anti-Homer1 IP, mGluR1 western blot
Details: reference: wild-type Homer1; sites S117

Homer1 (from UniProt Q9Z2Y3) Homer1 S117A
binding against the reference: stronger
